Details in all cases: both partners purified
The target in experiment [1] is T1, Recombinant full-length HA of A/Vietnam/1203/04 (H5-VN04) (Influenza A virus A/Vietnam/1203/2004 …, UniProt Q5EP31). Kind of experiment: ELISA.
Experiment [2] addresses T1, Recombinant full-length HA of …. The experiment in a line: BLI. (In general: BLI is a label-free optical method that tracks binding on a fibre tip over time.)
The target in experiment [3] is Recombinant full-length HA of A/California/04/09 (H1-CA09) (influenza A virus A/California/04/09, UniProt C3W5S1). Kind of experiment: BLI.

B1: 39.29 scFvFc (scFv, V domains shown)
VH: VQLVESGGGVVQPGKSPRLSCAASGPTFSSYAVHWVRQAPGKGLEWVTLISYDGANQYYADSVKGRFTISRDNSKNTVYLQMNSLRPEDTAVYYCAVPGPVFGIFPPWSYFDNWGQGILVTVSS
VL: IVLTQSPATLSVSPGERATLSCRASQVISHNLAWYQQKPGQAPRLLIYGASTRASGIPARFSGSGSGTDYTLTITSLQPEDFAVYYCQHYSNWPPRLTFGGGTKVEIK
In the case of B1, in experiment [1], the binding result is given as “binds”.

B2: F10 scFvFc (scFv, V domains shown)
VH: QVQLVQSGAEVKKPGSSVKVSCTSSEVTFSSFAISWVRQAPGQGLEWLGGISPMFGTPNYAQKFQGRVTITADQSTRTAYMDLRSLRSEDTAVYYCARSPSYICSGGTCVFDHWGQGTLVTVSS
VL: QPGLTQPPSVSKGLRQTATLTCTGNSNNVGNQGAAWLQQHQGHPPKLLSYRNNDRPSGISERFSASRSGNTASLTITGLQPEDEADYYCSTWDSSLSAVVFGGGTKLTVL
For the molecule B2, the binding result in experiment [1] is on record as “binds”.

B3: 3I14-gHmL IgG1 (germline heavy chain, mature light chain) (antibody, V domains shown)
VH: QVQLVESGGGVVQPGRSLRLSCAASGFTFSSYGMHWVRQAPGKGLEWVAVISYDGSNKYYADSVKGRFTISRDNSKNTLYLQMNSLRAEDTAVYYCAKLPSPYYYDSRFVWVAASYFDYWGQGTLVTVSS
VL: NFMLTQPPSASGTPGQRVTISCSGSSSNIGGNTVHWFQQLPGTAPKLLIYTNSLRPSGVPDRFSGSKSGTSASLAISGLQSEDEADYYCAAWDDSLNGQVFGGGTKLTVL
Broadly, the Kd is a measure of binding affinity in units of concentration. In general, koff refers to the rate constant with which the complex falls apart. As a reminder, the kon is a measure of how fast the partners come together. For B3, in experiment [2], the dissociation constant Kd was found to be 1.95 nM, the koff stood at 0.000844 s⁻¹ and the kon turned out to be 434000 M⁻¹ s⁻¹. For the same molecule, in experiment [3], the Kd was less than 0.001 nM, the koff was less than 1e-07 s⁻¹ and the on-rate (kon) turned out to be 155000 M⁻¹ s⁻¹.

B4: 3I14-mHgL IgG1 (mature heavy chain, germline light chain) (antibody, V domains shown)
VH: QVQLLESGGGVVQPGRSLRLSCAASGFTFSNYGMHWVRQAPGKGLEWVAIISFDGSKKYYANSVKGRSTISRDNSKNTLSLQMNSLGPEDTALYYCAKLPSPYYFDSRFVWVAASAFHFWGQGILVTVSS
VL: not shown
Turning to B4, in experiment [3], the Kd is less than 0.001 nM, the koff is less than 1e-07 s⁻¹ and the kon is 138000 M⁻¹ s⁻¹.

Source of the values: publication PMC5027281 (Nature Communications, 2016).
